Assay results reported in PMC6768288, “Biochemical and structural characterization of tyrosine aminotransferase suggests broad substrate specificity and a two‐state folding mechanism in Leishmania donovani” (FEBS Open Bio, 2019).

Legend:
Assay in all cases: purified protein
Format in all cases: biochemical, Leishmania donovani
purified protein [1] = substrate: CC(=O)C(=O)O; settings: co-substrate Tyr 4 mM; sodium pyruvate 0-200 mM; PLP 30 μM, 37 °C
purified protein [2] = substrate: CSCCC(=O)C(=O)O; settings: co-substrate Tyr 4 mM; KMB 0-4.5 μM; PLP 30 μM, 37 °C
purified protein [3] = substrate: Cc1ncc(COP(=O)(O)O)c(C=O)c1O; settings: tyrosine-sodium pyruvate as substrates; covalent internal aldimine with K286; varied: cofactor
purified protein [4] = substrate: N[C@@H](Cc1c[nH]c2ccccc12)C(=O)O; settings: co-substrate sodium pyruvate 100 mM; Trp 0-7 mM; PLP 30 μM, 37 °C
purified protein [5] = substrate: N[C@@H](Cc1ccc(O)cc1)C(=O)O; settings: co-substrate sodium pyruvate 100 mM; Tyr 0-7 mM; PLP 30 μM, 37 °C
purified protein [6] = substrate: N[C@@H](Cc1ccccc1)C(=O)O; settings: co-substrate sodium pyruvate 100 mM; Phe 0-7 mM; PLP 30 μM, 37 °C

B1: LdTAT (Leishmania donovani) (protein)
chain: MTIDTQAAPAAQTLKAGNATGSLTEERREVEQQRAAENTSFRRIASSKHAQRTLQPLNNLTDNMKPSRSTKSNLRLSIGDPTVDGNLKTPDIVTEAMVDIVRSGKFNGYPPTVGADNLRQVVSTYWRRFCQTKSRQEALKWENVIITSGVSQAIVLALTALCNEGDNILVCAPSFPHYKSVCDSYGIECRYYYLDPSKSWECDLRAAAGMVDSHTKAFVIINPSNPCGSNFSRAHVSDIIDFCQQHQIPLISDEIYAEMVLNNGIFTSVADFDTNVPRLILGGTAKYQVCPGWRVGWSILIDPMNVAGDWAVGMERLTQLIAGVNSICQEAIARTLLKCPAECTEHIVTQLEAGAKVYARLLEHDIGISMEAPQASMFVMLKLNLSYFQDLKSDMEFYEKLLDEENVQVLPGEIFGMSGFLRATVSRPSAVLNEAVDRIIEFCERHKK
notes: full-length ORF 1347 bp (448 residues from ORF length) amplified from L. donovani genomic DNA; pET28a(+) BamHI/HindIII, His-tagged, E. coli BL21, Ni-NTA
With B1 as the protein, how does the Km (purified protein [1]) read?
The Km was 42.67 ± 0.38 mM.

And the Vmax (purified protein [1])?
Its Vmax is 8600 µM/min/mg.

What about the Km (purified protein [2]) of the same protein?
The Km was 0.0008103 ± 0.00011 mM.

And the Vmax (purified protein [2])?
The Vmax was 1850 µM/min/mg.

And the Km (purified protein [3])?
Its Km is 0.02359 ± 0.00399 mM.

What about the Km (purified protein [4]) of the same protein?
Its Km is 5.055 ± 0.42 mM.

What about the Vmax (purified protein [4]) of the same protein?
Its Vmax is 19900 µM/min/mg.

What about the Km (purified protein [5]) of the same protein?
The Km was 3.5 ± 0.90 mM.

And the Vmax (purified protein [5])?
Its Vmax is 11700 µM/min/mg.

What about the Km (purified protein [6]) of the same protein?
The Km was 3.752 ± 0.96 mM.

What about the Vmax (purified protein [6]) of the same protein?
The Vmax was 19800 µM/min/mg.
